Results from PMC11739650 (Communications Biology, 2025).
Numbering of substitutions follows the chain as printed. In names and notes the source's numbering stands. Several values for one entry are separate records, joined by “and”; a condition that tells them apart may be missing. Equal values may be shown once.

B1: FliF (flagellar MS-ring protein), wild type (natural protein, Salmonella enterica serovar Typhimurium, UniProt P15928 1-560, looked up)
chain: MSATASTATQPKPLEWLNRLRANPRIPLIVAGSAAVAIVVAMVLWAKTPDYRTLFSNLSDQDGGAIVAQLTQMNIPYRFANGSGAIEVPADKVHELRLRLAQQGLPKGGAVGFELLDQEKFGISQFSEQVNYQRALEGELARTIETLGPVKSARVHLAMPKPSLFVREQKSPSASVTVTLEPGRALDEGQISAVVHLVSSAVAGLPPGNVTLVDQSGHLLTQSNTSGRDLNDAQLKFANDVESRIQRRIEAILSPIVGNGNVHAQVTAQLDFANKEQTEEHYSPNGDASKATLRSRQLNISEQVGAGYPGGVPGALSNQPAPPNEAPIATPPTNQQNAQNTPQTSTSTNSNSAGPRSTQRNETSNYEVDRTIRHTKMNVGDIERLSVAVVVNYKTLADGKPLPLTADQMKQIEDLTREAMGFSDKRGDTLNVVNSPFSAVDNTGGELPFWQQQSFIDQLLAAGRWLLVLVVAWILWRKAVRPQLTRRVEEAKAAQEQAQVRQETEEAVEVRLSKDEQLQQRRANQRLGAEVMSQRIREMSDNDPRVVALVIRQWMSNDHE
B2: FliF(∆214–220) (natural protein, Salmonella enterica serovar Typhimurium)
chain: MSATASTATQPKPLEWLNRLRANPRIPLIVAGSAAVAIVVAMVLWAKTPDYRTLFSNLSDQDGGAIVAQLTQMNIPYRFANGSGAIEVPADKVHELRLRLAQQGLPKGGAVGFELLDQEKFGISQFSEQVNYQRALEGELARTIETLGPVKSARVHLAMPKPSLFVREQKSPSASVTVTLEPGRALDEGQISAVVHLVSSAVAGLPPGNVTLVTQSNTSGRDLNDAQLKFANDVESRIQRRIEAILSPIVGNGNVHAQVTAQLDFANKEQTEEHYSPNGDASKATLRSRQLNISEQVGAGYPGGVPGALSNQPAPPNEAPIATPPTNQQNAQNTPQTSTSTNSNSAGPRSTQRNETSNYEVDRTIRHTKMNVGDIERLSVAVVVNYKTLADGKPLPLTADQMKQIEDLTREAMGFSDKRGDTLNVVNSPFSAVDNTGGELPFWQQQSFIDQLLAAGRWLLVLVVAWILWRKAVRPQLTRRVEEAKAAQEQAQVRQETEEAVEVRLSKDEQLQQRRANQRLGAEVMSQRIREMSDNDPRVVALVIRQWMSNDHE
B3: FliF(∆221–227) (natural protein, Salmonella enterica serovar Typhimurium)
chain: B2 chain with T214D, N217G, T218H, S219L, G220L
B4: FliF(∆165–167) (natural protein, Salmonella enterica serovar Typhimurium)
chain: MSATASTATQPKPLEWLNRLRANPRIPLIVAGSAAVAIVVAMVLWAKTPDYRTLFSNLSDQDGGAIVAQLTQMNIPYRFANGSGAIEVPADKVHELRLRLAQQGLPKGGAVGFELLDQEKFGISQFSEQVNYQRALEGELARTIETLGPVKSARVHLAMPKPSLEQKSPSASVTVTLEPGRALDEGQISAVVHLVSSAVAGLPPGNVTLVDQSGHLLTQSNTSGRDLNDAQLKFANDVESRIQRRIEAILSPIVGNGNVHAQVTAQLDFANKEQTEEHYSPNGDASKATLRSRQLNISEQVGAGYPGGVPGALSNQPAPPNEAPIATPPTNQQNAQNTPQTSTSTNSNSAGPRSTQRNETSNYEVDRTIRHTKMNVGDIERLSVAVVVNYKTLADGKPLPLTADQMKQIEDLTREAMGFSDKRGDTLNVVNSPFSAVDNTGGELPFWQQQSFIDQLLAAGRWLLVLVVAWILWRKAVRPQLTRRVEEAKAAQEQAQVRQETEEAVEVRLSKDEQLQQRRANQRLGAEVMSQRIREMSDNDPRVVALVIRQWMSNDHE
B5: FliF(G217W) (natural protein, Salmonella enterica serovar Typhimurium)
chain: B1 chain with G217W
B6: FliF(G217A) (natural protein, Salmonella enterica serovar Typhimurium)
chain: B1 chain with G217A
B7: FliF(G217P) (natural protein, Salmonella enterica serovar Typhimurium)
chain: B1 chain with G217P

Molecular target: the molecule itself
Assay: cryo-EM structure

| Protein | stoichiometry N |
| --- | --- |
| B1 | 33 and 34 |

Molecular target: the molecule itself
Assay: negative-stain electron microscopy

| Protein | binding result |
| --- | --- |
| B2 | binds |
| B3 | binds |
| B4 | binds |
| B5 | binds |
| B6 | binds |
| B7 | binds |
